Test results: US20250340630A1 (SICHUAN KELUN BIOTECH BIOPHARMACEUTICAL, published 2025)
Read-outs that look alike come from different tables or passages of the source.

Assays:
[1] = target: T1, human Claudin18.1 (human, UniProt P56856 1-261); experiment: flow cytometry on Ba/F3-Claudin18.1 cells
T1 construct: whole, on cells; Presented on transfected cells; also called CLDN18.1
Description: (§1) The affinity of the candidates to Claudin18.2 was measured using FACS. […] Ba/F3-Claudin18.1 and Ba/F3-Claudin18.2 cells were incubated with the purified mouse antibodies at various concentrations on ice for 30 min and mouse IgG was used as negative control (Thermo Fisher, Cat: 31903), followed by washing with FACS buffer (PBS+2% FBS) twice.

[2] = target: T2, human Claudin18.2 (human, UniProt P56856-2 1-261); experiment: flow cytometry on Ba/F3-Claudin18.2 cells, purified mouse antibody
T2 construct: whole, on cells; Four-transmembrane protein, always presented on cells (transfected lines or NUGC-4 with endogenous expression); also called CLDN18.2
Description: as §1

[3] = target: T2, human Claudin18.2; experiment: cell-based or functional assay
[4] = target: T2, human Claudin18.2; experiment: cell-based or functional assay; remark: listed apart in the source
[5] = target: T2, human Claudin18.2; experiment: flow cytometry (IntelliCyt) on Ba/F3-Claudin18.2 cells
Text: In order to evaluate the anti-Claudin18.2 humanized antibodies, codon optimized cDNAs of the heavy chains and the light chains of the candidate humanized antibodies from Example 6 were synthesized and ligated into pcDNA3.4 (by Nanjing Genscript Biotech Corporation). Expi293F cells (purchased from Thermo Incorporation) were co-transfected with pcDNA3.4 coding the heavy chain and light chain of each antibody. The antibodies were purified from the supernatant using protein A (MabSelect SuRe, GE). The affinity of the humanized antibodies to Claudin18.2 was determined using Ba/F3-Claudin18.2 cells which over-expressed human Claudin18.2. Ba/F3-Claudin18.2 cells (60000 in 10 ul buffer) were incubated with purified humanized antibodies on ice for 30 min, followed by washing with buffer (PBS+2% FBS) twice and addition of Alexa647-labeled goat-anti-human IgG Fc antibody (1:500 dilution). The cells were incubated on ice for another 30 min and analyzed by IntelliCyt.

[6] = target: T2, human Claudin18.2; experiment: cellular ELISA on fixed L929-Claudin 18.2 cells
Description: (§2) Human Claudin18.2 is a four transmembrane protein and has a complex structure. Cellular ELISA was thus carried out to maintain the structure of Claudin18.2. […] The cells were resuspended and adjusted to 2×10⁵/mL and 100 μL of the resuspension was plated into 96 well plate and incubated overnight at 37° C. The next day, the media was removed, and the plate was washed with PBS once. 100 μL/well 4% formaldehyde was added to the plate. After 30 min of incubation at room temperature, formaldehyde was removed, followed by washing twice with PBS. Blocking buffer (PBS containing 2% BSA) was then added to the plate at 100 μL/well, and incubated at 37° C. for 2 h. After removal of blocking buffer, 100 μL/well of serially diluted antibodies (starting from 1 μM, with 4-fold dilution, for a total of 11 concentrations) were added to the corresponding wells, which were incubated at 37° C. for 2h afterwards. The plate was washed with 250 μL PBST for 5 times, and was allowed to stand for 2 min each time. […] The plate was incubated at 37° C. for 1 h and washed with 250 μL PBST 6 times, wherein the plate was allowed to stand for 2 min each time. 100 μL/well of TMB solution (Thermo, 34029) was added. […] The absorbance at 450 nm was read on a plate reader (MD, SpectraMax M2) and the results were subjected to curve fitting by Graphpad Prism.

[7] = target: T2, human Claudin18.2; experiment: cellular ELISA on NUGC-4 cells (endogenous human Claudin18.2)
Description: The cells were resuspended and adjusted to 2×10⁵/mL and 100 μL of the resuspension was plated into 96 well plate and incubated overnight at 37° C. The next day, the media was removed, and the plate was washed with PBS once. 100 μL/well 4% formaldehyde was added to the plate. After 30 min of incubation at room temperature, formaldehyde was removed, followed by washing twice with PBS. Blocking buffer (PBS containing 2% BSA) was then added to the plate at 100 μL/well, and incubated at 37° C. for 2 h. After removal of blocking buffer, 100 μL/well of serially diluted antibodies (starting from 1 μM, with 4-fold dilution, for a total of 11 concentrations) were added to the corresponding wells, which were incubated at 37° C. for 2h afterwards. The plate was washed with 250 μL PBST for 5 times, and was allowed to stand for 2 min each time. […] The plate was incubated at 37° C. for 1 h and washed with 250 μL PBST 6 times, wherein the plate was allowed to stand for 2 min each time. 100 μL/well of TMB solution (Thermo, 34029) was added. The reactions were incubated at 37° C. for 20 min and stopped with 50 μL 2 mol/L H₂SO₄. The absorbance at 450 nm was read on a plate reader (MD, SpectraMax M2) and the results were subjected to curve fitting by Graphpad Prism.

[8] = target: T1, human Claudin18.1; experiment: flow cytometry, HEK293T-human Claudin 18.1 cells compared with HEK293T cells
Description: The specificity of candidate antibodies was detected by FACS. […] After washing twice with PBS, the cells were resuspended with PBS containing 1% BSA. 300,000 cells for each cell line were added with the candidate antibodies at a final concentration of 1000 nM, mixed well, and incubated for 1 h at 4° C., protected from light. Then the cells were washed for three times with PBS and FITC-labeled anti-human Fc secondary antibody (BioLegend, 409322) was added, followed by 0.5h of incubation at 4° C. in the dark. Detection was performed by flow cytometry (Beckman, Cytoflex) after washing with PBS for three times.

[9] = target: T2, human Claudin18.2; experiment: cell-based or functional assay; remark: listed apart in the source
[10] = target: T2, human Claudin18.2; experiment: cellular ELISA on fixed L929-Claudin 18.2 cells; remark: listed apart in the source
Description: Human Claudin18.2 is a four transmembrane protein and has a complex structure. Cellular ELISA was thus carried out to maintain the structure of Claudin18.2. […] The cells were resuspended and adjusted to 2×10⁵/mL and 100 μL of the resuspension was plated into 96 well plate and incubated overnight at 37° C. The next day, the media was removed, and the plate was washed with PBS once. 100 μL/well 4% formaldehyde was added to the plate. After 30 min of incubation at room temperature, formaldehyde was removed, followed by washing twice with PBS. Blocking buffer (PBS containing 2% BSA) was then added to the plate at 100 μL/well, and incubated at 37° C. for 2 h. After removal of blocking buffer, 100 μL/well of serially diluted antibodies (starting from 1 μM, with 4-fold dilution, for a total of 11 concentrations) were added to the corresponding wells, which were incubated at 37° C. for 2h afterwards. The plate was washed with 250 μL PBST for 5 times, and was allowed to stand for 2 min each time. […] The plate was incubated at 37° C. for 1 h and washed with 250 μL PBST 6 times, wherein the plate was allowed to stand for 2 min each time. 100 μL/well of TMB solution (Thermo, 34029) was added. The reactions were incubated at 37° C. for 20 min and stopped with 50 μL 2 mol/L H₂SO₄. The absorbance at 450 nm was read on a plate reader (MD, SpectraMax M2) and the results were subjected to curve fitting by Graphpad Prism.

[11] = target: T2, human Claudin18.2; experiment: cell-based or functional assay; remark: listed apart in the source
[12] = target: T2, human Claudin18.2; experiment: cell-based or functional assay; remark: listed apart in the source
[13] = target: T2, human Claudin18.2; experiment: cellular ELISA on fixed L929-Claudin 18.2 cells; remark: listed apart in the source
Description: as §2

[14] = target: T2, human Claudin18.2; experiment: flow cytometry on HEK293T-Claudin 18.2 cells
Description: HEK293T-Claudin 18.2 cells were detached and centrifuged, followed by washing for twice with PBS. And then the cells were resuspended in PBS containing 1% BSA and were plated into 96-well tip bottom plate at 300000 cells per well in a volume of 50 μl for 20 wells in total. […] Human IgG was served as negative control. The reactions were mixed well and incubated for 1 h at 4° C. in the dark. Following by three times of washing with PBS, the FITC-labelled anti-human Fc secondary antibody (Biolegend, 409322) was added and incubated for 0.5h in the dark. Detection was performed by flow cytometry (Beckman, Cytoflex) after washing for three times with PBS.

[15] = target: T2, human Claudin18.2; experiment: flow cytometry on Ba/F3-Claudin18.2 cells

Binder	ADCC EC50, Ba/F3-Claudin18.2 target cells, NK-92MI_mCD16 effectors [3] [mg/L]	ADCC Max killing rate %, Ba/F3-Claudin18.2 target cells [3] [%]	EC50 [6] [nM]	EC50 [7] [nM]	binding result [8]	ADCC EC50 on HEK293T-Claudin 18.2 cells (NK92MI-CD16a, LDH) [9] [mg/L]	ADCC EC50 on KATOIII-Claudin 18.2 cells (NK92MI-CD16a, LDH) [9] [mg/L]	ADCC EC50 on L929-Claudin 18.2 cells (NK92MI-CD16a, LDH) [9] [mg/L]	ADCC EC50 on NUGC-4 cells (NK92MI-CD16a, LDH) [9] [mg/L]	EC50 [10] [nM]	Max Signal Value (OD450) [10] [OD450]	CDC EC50 on HEK293T-Claudin 18.2 cells (guinea pig serum, CellTiter-Glo) [11] [mg/L]	ADCC EC50 on HEK293T-Claudin 18.2 cells (NK92MI-CD16a, LDH) [12] [mg/L]	EC50 [13] [nM]	EC50 [14] [nM]	other results
mouse antibody 2C6.9 (antibody, V domains shown, Purified from hybridoma; also called 2C6.9.2) VH: QVQLKESGPGLVAPSQSLSITCTVSGFSLTRYGVSWVRQPPGKGLEWLGVIWGDGNTNFHSFLKSRLSISKDSSKSQVFLKLNSLQTDDTATYYCARVNFGNALDYWGQGTSVTVSS VL: DIVMTQSPSSLTVTAGEEVTMSCKSSQSLLNSGNQKNYLTWYQQKPGQPPKLLIYWASTRDSGVPDRFTGSGSGTDFTLTISSVQSEDLAVYYCQNDFIFPLTFGAGTKLELK	–	–	–	–	–	–	–	–	–	–	–	–	–	–	–	binding result [1]: no binding; EC50 [2]: 10.6 nM; Max MFI [2]: 6.11e+06 MFI
humanized antibody 1E9.2-hz11 (antibody, human IgG1, kappa, V domains shown, human IgG1 / kappa) VH: EVQLVESGGGLVKPGGSLRLSCAASGFSFSNSAMSWVRQAPGKGLEWVSTISSGDSYTYYADSVKGRFTISRDNAKNSLYLQMNSLRAEDTAVYYCARQGYGNALDYWGQGTLVTVSS VL: DIVMTQSPDSLAVSLGERATINCKSSQSLLNSGNQKNYLTWYQQKPGQPPKLLIYWSSTRESGVPDRFSGSGSGTDFTLTISSLQAEDFAVYYCQNDYYYPLTFGGGTKVEIKR	0.041	60.2	0.1	0.413	no binding (tested: 1000 nM)	0.0528	0.00359	0.00239	0.134	0.09	0.8	–	–	–	–	CDC activity on HEK293T-Claudin 18.2 cells, fold against IMAB362 [4]: 3.5 fold; Max MFI [5]: 1.13e+07 MFI
humanized antibody 2C6.9-hz21 (antibody, human IgG1, kappa, V domains shown, human IgG1 / kappa; also called 2C6.9.2hz21) VH: QVQLQESGPGLVKPSETLSLTCTVSGFSLTRYGVSWIRQPPGKGLEWIGVIWGEGNTNYNPSLKSRVTISKDSSKSQVSLKLSSVTAADTAVYYCARVNFGNALDYWGQGTLVTVSS VL: DIVMTQSPDSLAVSLGERATINCKSSQSLLNSGNQKNYLTWYQQKPGQPPKLLIYWASTRDSGVPDRFSGSGSGTDFTLTISSLQAEDVAVYYCQNDFIFPLTFGGGTKVEIKR	–	–	–	–	no binding (tested: 1000 nM)	–	–	–	–	0.18	0.8	1.36	0.0677	0.12	5.77	–
humanized antibody 2C6.9-hz11 (antibody, human IgG1, kappa, V domains shown, Human IgG1 / kappa constant regions; also called 2C6.9.2hz11) VH: QVQLQESGPGLVKPSETLSLTCTVSGFSLTRYGVSWIRQPPGKGLEWIGVIWGDGNTNYNPSLKSRVTISKDSSKSQVSLKLSSVTAADTAVYYCARVNFGNALDYWGQGTLVTVSS VL: DIVMTQSPDSLAVSLGERATINCKSSQSLLNSGNQKNYLTWYQQKPGQPPKLLIYWASTRDSGVPDRFSGSGSGTDFTLTISSLQAEDVAVYYCQNDFIFPLTFGGGTKVEIKR	–	–	–	–	–	–	–	–	–	0.16	0.8	–	–	–	–	–
IMAB362 (antibody, V domains shown) VH: QVQLQQPGAELVRPGASVKLSCKASGYTFTSYWINWVKQRPGQGLEWIGNIYPSDSYTNYNQKFKDKATLTVDKSSSTAYMQLSSPTSEDSAVYYCTRSWRGNSFDYWGQGTTLTVSS VL: DIVMTQSPSSLTVTAGEKVTMSCKSSQSLLNSGNQKNYLTWYQQKPGQPPKLLIYWASTRESGVPDRFTGSGSGTDFTLTISSVQAEDLAVYYCQNDYSYPFTFGSGTKLEIKR	0.351	54.2	0.18	~664	–	0.0336	0.0101	0.0781	1.22	–	–	3.32	0.0577	0.15	8.22	EC50 [15]: 18 nM
